{"source": "patent US12692303", "target": "IL-23-p40 (human) (UniProt P29460)", "sequence (P29460 23-328 limits assumed)": "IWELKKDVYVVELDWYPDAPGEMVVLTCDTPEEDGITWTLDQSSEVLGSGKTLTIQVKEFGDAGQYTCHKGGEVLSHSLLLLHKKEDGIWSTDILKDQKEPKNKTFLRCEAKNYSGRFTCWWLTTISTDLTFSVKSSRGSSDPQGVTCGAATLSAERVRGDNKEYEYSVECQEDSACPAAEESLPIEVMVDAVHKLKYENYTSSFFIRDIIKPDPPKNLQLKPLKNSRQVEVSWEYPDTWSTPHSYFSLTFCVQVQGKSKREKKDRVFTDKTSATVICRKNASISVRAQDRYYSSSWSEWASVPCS", "experiment": "Binding ELISA: IL-23-p40 coated at 2 ug/ml, antibody dilution series 0 to 5 ug/ml, goat anti-human IgG secondary antibody, OD450 (reference 650 nm). The sheet prints no unit on the x axis; ng/ml follows from the range in paragraph 77 (highest point at 5000)"}
{"substance": "IL-23 p40 specific antibody QX001S", "values": [{"measurement": "EC50", "value": 0.0179, "unit": "µg/mL"}]}
